# Paper PMC5499549, “DNA substrate recognition and processing by the full-length human UPF1 helicase”
# T1: hUPF1 (full-length) (Homo sapiens, UniProt Q92900-2 1-1118)
# T1 sequence: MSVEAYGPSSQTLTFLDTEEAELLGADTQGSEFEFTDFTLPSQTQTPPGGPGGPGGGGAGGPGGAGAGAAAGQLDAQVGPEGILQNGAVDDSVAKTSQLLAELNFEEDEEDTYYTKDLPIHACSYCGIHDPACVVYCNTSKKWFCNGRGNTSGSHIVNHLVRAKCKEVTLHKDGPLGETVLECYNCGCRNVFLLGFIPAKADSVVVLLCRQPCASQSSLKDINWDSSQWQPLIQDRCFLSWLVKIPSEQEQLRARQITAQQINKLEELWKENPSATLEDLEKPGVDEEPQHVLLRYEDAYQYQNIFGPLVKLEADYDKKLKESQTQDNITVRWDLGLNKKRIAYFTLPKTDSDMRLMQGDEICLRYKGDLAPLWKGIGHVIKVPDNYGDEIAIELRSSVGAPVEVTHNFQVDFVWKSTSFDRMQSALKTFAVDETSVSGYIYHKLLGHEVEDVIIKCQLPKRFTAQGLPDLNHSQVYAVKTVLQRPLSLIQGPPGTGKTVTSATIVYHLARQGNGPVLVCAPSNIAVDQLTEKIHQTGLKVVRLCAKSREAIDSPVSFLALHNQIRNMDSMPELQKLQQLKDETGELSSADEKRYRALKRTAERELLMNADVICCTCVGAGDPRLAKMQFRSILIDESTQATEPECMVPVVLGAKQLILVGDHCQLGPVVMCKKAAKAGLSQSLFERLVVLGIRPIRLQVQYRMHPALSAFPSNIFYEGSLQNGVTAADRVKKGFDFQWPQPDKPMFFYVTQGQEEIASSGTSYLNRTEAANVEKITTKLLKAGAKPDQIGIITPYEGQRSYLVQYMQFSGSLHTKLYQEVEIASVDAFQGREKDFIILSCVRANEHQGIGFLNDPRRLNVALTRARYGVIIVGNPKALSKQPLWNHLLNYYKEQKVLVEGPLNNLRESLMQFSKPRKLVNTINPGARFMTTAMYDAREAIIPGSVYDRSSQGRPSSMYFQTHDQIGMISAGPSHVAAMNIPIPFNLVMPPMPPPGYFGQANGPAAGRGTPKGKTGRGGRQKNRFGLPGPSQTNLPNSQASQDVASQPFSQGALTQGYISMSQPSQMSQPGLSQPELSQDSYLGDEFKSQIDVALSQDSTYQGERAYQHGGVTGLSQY
# Key:
# hUPF1 (full-length) [1] = molecular target: T1, hUPF1 (full-length); experiment: MST; 25 mM HEPES-NaOH pH 7.2, 135 mM NaCl, 2 mM DTT, 1 mg/ml acetylated BSA, 0.1% NP40, 20 min; EMSA 20 C, MST 22 C (20 nM DNA); no nucleotide cofactor or Mg2+ unles; details: protein: recombinant; tags: GST and His tags removed (thrombin, TEV); residual ENLYFQ linker likely at C-terminus; label: 5' Alexa 647
# hUPF1 (full-length) [2] = molecular target: T1, hUPF1 (full-length); experiment: EMSA; equivalent to G4 ss precursor; 25 mM HEPES-NaOH pH 7.2, 135 mM NaCl, 2 mM DTT, 1 mg/ml acetylated BSA, 0.1% NP40, 20 min; EMSA 20 C, MST 22 C (20 nM DNA); no nucleotide cofactor or Mg2+ unles; details: protein: recombinant; tags: GST and His tags removed (thrombin, TEV); residual ENLYFQ linker likely at C-terminus; label: 32P
# hUPF1 (full-length) [3] = molecular target: T1, hUPF1 (full-length); experiment: EMSA; 25 mM HEPES-NaOH pH 7.2, 135 mM NaCl, 2 mM DTT, 1 mg/ml acetylated BSA, 0.1% NP40, 20 min; EMSA 20 C, MST 22 C (20 nM DNA); no nucleotide cofactor or Mg2+ unles; details: protein: recombinant; tags: GST and His tags removed (thrombin, TEV); residual ENLYFQ linker likely at C-terminus; label: 5' 32P (EMSA)
# hUPF1 (full-length) [4] = molecular target: T1, hUPF1 (full-length); experiment: EMSA; no nucleotide cofactor; 25 mM HEPES-NaOH pH 7.2, 135 mM NaCl, 2 mM DTT, 1 mg/ml acetylated BSA, 0.1% NP40, 20 min; EMSA 20 C, MST 22 C (20 nM DNA); no nucleotide cofactor or Mg2+ unles; details: protein: recombinant; tags: GST and His tags removed (thrombin, TEV); residual ENLYFQ linker likely at C-terminus; label: 5' 32P (EMSA)
# hUPF1 (full-length) [5] = molecular target: T1, hUPF1 (full-length); experiment: competition; vs 0.25 nM 32P-DNA35, 10 nM hUPF1; 25 mM HEPES-NaOH pH 7.2, 135 mM NaCl, 2 mM DTT, 1 mg/ml acetylated BSA, 0.1% NP40, 20 min; EMSA 20 C, MST 22 C (20 nM DNA); no nucleotide cofactor or Mg2+ unles; details: protein: recombinant, tags: GST and His tags removed (thrombin, TEV), residual ENLYFQ linker likely at C-terminus
# hUPF1 (full-length) [6] = molecular target: T1, hUPF1 (full-length); experiment: MST; fit up to 156 nM hUPF1; 25 mM HEPES-NaOH pH 7.2, 135 mM NaCl, 2 mM DTT, 1 mg/ml acetylated BSA, 0.1% NP40, 20 min; EMSA 20 C, MST 22 C (20 nM DNA); no nucleotide cofactor or Mg2+ unles; details: protein: recombinant; tags: GST and His tags removed (thrombin, TEV); residual ENLYFQ linker likely at C-terminus; label: 5' Alexa 647
# hUPF1 (full-length) [7] = molecular target: T1, hUPF1 (full-length); experiment: MST; second experimental group; fit up to 156 nM; 25 mM HEPES-NaOH pH 7.2, 135 mM NaCl, 2 mM DTT, 1 mg/ml acetylated BSA, 0.1% NP40, 20 min; EMSA 20 C, MST 22 C (20 nM DNA); no nucleotide cofactor or Mg2+ unles; details: protein: recombinant; tags: GST and His tags removed (thrombin, TEV); residual ENLYFQ linker likely at C-terminus; label: 5' Alexa 647
# hUPF1 (full-length) [8] = molecular target: T1, hUPF1 (full-length); experiment: EMSA; most or all bound at top concentrations; multimerization; 25 mM HEPES-NaOH pH 7.2, 135 mM NaCl, 2 mM DTT, 1 mg/ml acetylated BSA, 0.1% NP40, 20 min; EMSA 20 C, MST 22 C (20 nM DNA); no nucleotide cofactor or Mg2+ unles; details: protein: recombinant; tags: GST and His tags removed (thrombin, TEV); residual ENLYFQ linker likely at C-terminus; label: 32P
# hUPF1 (full-length) [9] = molecular target: T1, hUPF1 (full-length); experiment: EMSA; 25 mM HEPES-NaOH pH 7.2, 135 mM NaCl, 2 mM DTT, 1 mg/ml acetylated BSA, 0.1% NP40, 20 min; EMSA 20 C, MST 22 C (20 nM DNA); no nucleotide cofactor or Mg2+ unles; details: protein: recombinant; tags: GST and His tags removed (thrombin, TEV); residual ENLYFQ linker likely at C-terminus; label: 32P (EMSA)
# hUPF1 (full-length) [10] = molecular target: T1, hUPF1 (full-length); experiment: MST; biphasic, low-amplitude first phase; 25 mM HEPES-NaOH pH 7.2, 135 mM NaCl, 2 mM DTT, 1 mg/ml acetylated BSA, 0.1% NP40, 20 min; EMSA 20 C, MST 22 C (20 nM DNA); no nucleotide cofactor or Mg2+ unles; details: protein: recombinant; tags: GST and His tags removed (thrombin, TEV); residual ENLYFQ linker likely at C-terminus; label: 5' Alexa 647
# hUPF1 (full-length) [11] = molecular target: T1, hUPF1 (full-length); experiment: MST; fit up to 313 nM hUPF1; 25 mM HEPES-NaOH pH 7.2, 135 mM NaCl, 2 mM DTT, 1 mg/ml acetylated BSA, 0.1% NP40, 20 min; EMSA 20 C, MST 22 C (20 nM DNA); no nucleotide cofactor or Mg2+ unles; details: protein: recombinant; tags: GST and His tags removed (thrombin, TEV); residual ENLYFQ linker likely at C-terminus; label: 5' Alexa 647
binder,measurement,setting,value
TTTTTTTTTTTTTTT (ssDNA) [d(T)15-Alexa647],Kd,hUPF1 (full-length) [1],39.4 ± 3.6 nM
TTTTTTTTTTTTTTTTTT (ssDNA) [d(T)18],binding result,hUPF1 (full-length) [2],binds
TTTTTTTTTTTTTTTTTTTTTTTTTTTTTTTTTTT (ssDNA) [d(T)35],binding signal,hUPF1 (full-length) [3],~2 fold higher affinity than (U)35
same,Kd,hUPF1 (full-length) [4],~1 nM
same,IC50,hUPF1 (full-length) [5]; label: 5' 32P (EMSA),11.5 nM
TTTTTTTTTTTTTTTTTTTTTTTTTTTTTTTTTTT (ssDNA) [d(T)35-Alexa647],Kd,hUPF1 (full-length) [6],4.05 ± 0.58 nM
same,Kd,hUPF1 (full-length) [7],6.01 ± 0.85 nM
d(T)55 (ssDNA) DNA: TTTTTTTTTTTTTTTTTTTTTTTTTTTTTTTTTTTTTTTTTTTTTTTTTTTTTTT,binding result,hUPF1 (full-length) [8],binds
AAAAAAAAAAAAAAAAAAAAAAAAAAAAAAAAAAA (ssRNA) [(A)35],binding signal,hUPF1 (full-length) [9],~5 fold higher affinity than (C)35
same,IC50,hUPF1 (full-length) [5]; label: 32P (EMSA),172 nM
AAAAAAAAAAAAAAAAAAAAAAAAAAAAAAAAAAA (ssDNA) [d(A)35-Alexa647],Kd,hUPF1 (full-length) [10],4200 ± 3730 nM
CACAAGCAACCAAUCGGUUCGACACUCAUACUGGC (ssRNA) [RNA35],IC50,hUPF1 (full-length) [5]; label: 32P (EMSA),50.4 nM
CACAAGCAACCAATCGGTTCGACACTCATACTGGC (ssDNA) [DNA35],binding signal,hUPF1 (full-length) [3],~3 fold higher affinity than RNA35
same,IC50,hUPF1 (full-length) [5]; label: 5' 32P (EMSA),31.5 nM
CACAAGCAACCAATCGGTTCGACACTCATACTGGC (ssDNA) [DNA35-Alexa647],Kd,hUPF1 (full-length) [6],9.8 ± 1 nM
UUUUUUUUUUUUUUUUUUUUUUUUUUUUUUUUUUU (ssRNA) [(U)35],IC50,hUPF1 (full-length) [5]; label: 32P (EMSA),12.3 nM
TTTTTTTTTTTTTTTTTTTTTTTTTTTTTTTTTTTTTTTTTTTTT (ssDNA) [d(T)45],binding result,hUPF1 (full-length) [8],binds
TTTTTTTTTTTTTTTTTTTTTTTTT (ssDNA) [d(T)25-Alexa647],Kd,hUPF1 (full-length) [11],5.98 ± 0.51 nM
